{"source": "the RNAGym collection of RNA variant scans (doi:10.1093/molbev/msab373)", "parents": {"B1": {"name": "Azoarcus group I ribozyme (parent)", "chain": "GUGCCUUGCGCCGGGAAACCACGCAAGGGAUGGUGUCAAAUUCGGCGAAACCUAAGCGCCCGCCCGGGCGUAUGGCAACGCCGAGCCAAGCUUCGGCGCCUGCGCCGAUGAAGGUGUAGAGACUAGACGGCACCCACCUAAGGCAAACGCUAUGGUGAAGGCAUAGUCCAGGGAGUGGCGAAAGUCACACAAACCGG"}}}
{"variants_of": "B1", "experiment": "reverse-splicing fitness (ratio to wild type); higher = more active; in vitro selection; Mg2+ level not given", "procedure,_shortened": "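An in vitro group I ribozyme library with randomized positions was T7-transcribed and gel-purified. In triplicate, 10 pmol RNA in EPPS pH 7.5 was reacted with 50 pmoles of a 30-nt RNA substrate for 1 h at 37 °C across several added MgCl2 levels (1–48 mM), then stopped with EDTA. Products were reverse transcribed from a substrate-complementary primer, PCR-amplified and sequenced (HiSeq 4000). Fitness is a variant's read proportion after selection over that before, normalised to wild type.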"}
{"variant": "C82G A111U A120G A145C C150A C169U", "reverse-splicing fitness": 0.00694}
{"variant": "C82G A111U A120G A145C C150A C169A", "reverse-splicing fitness": 0.00828}
{"variant": "C82G A111U A120G A145C C150A C169G", "reverse-splicing fitness": 0.00827}
{"variant": "C82G A111U A120C C150U C169A U176G", "reverse-splicing fitness": 0.00644}
{"variant": "C82G A111U A120C C150U C169A U176C", "reverse-splicing fitness": 0.0138}
{"variant": "C82G A111U A120C C150U C169A U176A", "reverse-splicing fitness": 0.0158}
{"variant": "C82G A111U A120C C150U C169G U176G", "reverse-splicing fitness": 0.00625}
{"variant": "C82G A111U A120C C150U C169G U176A", "reverse-splicing fitness": 0.0159}
{"variant": "C82G A111U A120C C150U C169G U176C", "reverse-splicing fitness": 0.0194}
{"variant": "C82G A111U A120C A145U C150G C169U U176A", "reverse-splicing fitness": 0.0083}
{"variant": "C82G A111U A120C A145U C150G C169U U176C", "reverse-splicing fitness": 0.0123}
{"variant": "C82G A111U A120C A145U C150G C169U U176G", "reverse-splicing fitness": 0.00561}
{"variant": "C82G A111U A120G A145C C150G C169U U176A", "reverse-splicing fitness": 0.0121}
{"variant": "C82G A111U A120G A145C C150G C169U U176G", "reverse-splicing fitness": 0.00569}
{"variant": "C82G A111U A120G A145C C150G C169U U176C", "reverse-splicing fitness": 0.0123}
{"variant": "C82G A111U A120G A145C C150G C169G U176C", "reverse-splicing fitness": 0.00745}
{"variant": "C82G A111U A120G A145C C150G C169G U176G", "reverse-splicing fitness": 0.00464}
{"variant": "C82G A111U A120G A145C C150G C169G U176A", "reverse-splicing fitness": 0.00853}
{"variant": "C82G A111U A120C A145U C150U U176A", "reverse-splicing fitness": 0.015}
{"variant": "C82G A111U A120C A145U C150U U176C", "reverse-splicing fitness": 0.0247}
{"variant": "C82G A111U A120C A145U C150U U176G", "reverse-splicing fitness": 0.00687}
{"variant": "C82G A111U A120G A145C C150U C169A U176G", "reverse-splicing fitness": 0.00544}
{"variant": "C82G A111U A120G A145C C150U C169A U176C", "reverse-splicing fitness": 0.0083}
{"variant": "C82G A111U A120G A145C C150U C169A U176A", "reverse-splicing fitness": 0.0138}
{"variant": "C82G A111U A120C C150G U176A", "reverse-splicing fitness": 0.00531}
{"variant": "C82G A111U A120C C150G U176G", "reverse-splicing fitness": 0.00396}
{"variant": "C82G A111U A120C C150G U176C", "reverse-splicing fitness": 0.009}
{"variant": "C82G A111U A120C A145U C150G C169G U176G", "reverse-splicing fitness": 0.00592}
{"variant": "C82G A111U A120C A145U C150G C169G U176C", "reverse-splicing fitness": 0.007}
{"variant": "C82G A111U A120C A145U C150G C169G U176A", "reverse-splicing fitness": 0.00838}
{"variant": "C82G A111U A120C A145U C150G U176G", "reverse-splicing fitness": 0.00406}
{"variant": "C82G A111U A120C A145U C150G U176C", "reverse-splicing fitness": 0.00903}
{"variant": "C82G A111U A120C A145U C150G U176A", "reverse-splicing fitness": 0.0058}
{"variant": "C82G A111U A120C C150A C169U U176C", "reverse-splicing fitness": 0.0159}
{"variant": "C82G A111U A120C C150A C169U U176A", "reverse-splicing fitness": 0.018}
{"variant": "C82G A111U A120C C150A C169U U176G", "reverse-splicing fitness": 0.00816}
{"variant": "C82G A111U A120G A145C C169A", "reverse-splicing fitness": 0.00794}
{"variant": "C82G A111U A120G A145C C169U", "reverse-splicing fitness": 0.00836}
{"variant": "C82G A111U A120G A145C C169G", "reverse-splicing fitness": 0.0125}
{"variant": "C82G A111U A120C C169G U176C", "reverse-splicing fitness": 0.0244}
{"variant": "C82G A111U A120C C169G U176G", "reverse-splicing fitness": 0.00577}
{"variant": "C82G A111U A120C C169G U176A", "reverse-splicing fitness": 0.0203}
{"variant": "C82G A111U A120C C150G C169U", "reverse-splicing fitness": 0.0106}
{"variant": "C82G A111U A120C C150G C169A", "reverse-splicing fitness": 0.00975}
{"variant": "C82G A111U A120C C150G C169G", "reverse-splicing fitness": 0.00753}
{"variant": "C82G A111U A120G A145C", "reverse-splicing fitness": 0.0134}
{"variant": "C82G A111U A120C C150A C169A U176A", "reverse-splicing fitness": 0.0237}
{"variant": "C82G A111U A120C C150A C169A U176G", "reverse-splicing fitness": 0.00867}
{"variant": "C82G A111U A120C C150A C169A U176C", "reverse-splicing fitness": 0.0217}
{"variant": "C82G A111U A120G A145C C150A C169A U176C", "reverse-splicing fitness": 0.00752}
{"variant": "C82G A111U A120G A145C C150A C169A U176A", "reverse-splicing fitness": 0.0145}
{"variant": "C82G A111U A120G A145C C150A C169A U176G", "reverse-splicing fitness": 0.00583}
{"variant": "C82G A111U A120C C150G C169A U176A", "reverse-splicing fitness": 0.0137}
{"variant": "C82G A111U A120C C150G C169A U176G", "reverse-splicing fitness": 0.00844}
{"variant": "C82G A111U A120C C150G C169A U176C", "reverse-splicing fitness": 0.0141}
{"variant": "C82G A111U A120C C150A U176C", "reverse-splicing fitness": 0.0231}
{"variant": "C82G A111U A120C C150A U176G", "reverse-splicing fitness": 0.0115}
{"variant": "C82G A111U A120C C150A U176A", "reverse-splicing fitness": 0.0138}
{"variant": "C82G A111U A120C C150U C169U", "reverse-splicing fitness": 0.0125}
{"variant": "C82G A111U A120C C150U C169G", "reverse-splicing fitness": 0.00965}
{"variant": "C82G A111U A120C C150U C169A", "reverse-splicing fitness": 0.0105}
{"variant": "C82G A111U A120G", "reverse-splicing fitness": 0.0168}
{"variant": "C82G A111U A120C A145U C150U C169A U176G", "reverse-splicing fitness": 0.00636}
{"variant": "C82G A111U A120C A145U C150U C169A U176A", "reverse-splicing fitness": 0.0178}
{"variant": "C82G A111U A120C A145U C150U C169A U176C", "reverse-splicing fitness": 0.0135}
{"variant": "C82G A111U A120C C150U C169U U176C", "reverse-splicing fitness": 0.0139}
{"variant": "C82G A111U A120C C150U C169U U176A", "reverse-splicing fitness": 0.0146}
{"variant": "C82G A111U A120C C150U C169U U176G", "reverse-splicing fitness": 0.00768}
{"variant": "C82G A111U A120G A145C C150U C169U U176C", "reverse-splicing fitness": 0.013}
{"variant": "C82G A111U A120G A145C C150U C169U U176G", "reverse-splicing fitness": 0.00513}
{"variant": "C82G A111U A120G A145C C150U C169U U176A", "reverse-splicing fitness": 0.019}
{"variant": "C82G A111U A120G A145C C150U C169A", "reverse-splicing fitness": 0.00886}
{"variant": "C82G A111U A120G A145C C150U C169U", "reverse-splicing fitness": 0.00738}
{"variant": "C82G A111U A120G A145C C150U C169G", "reverse-splicing fitness": 0.00915}
{"variant": "C82G A111U A120G A145C C150A U176A", "reverse-splicing fitness": 0.00962}
{"variant": "C82G A111U A120G A145C C150A U176G", "reverse-splicing fitness": 0.00582}
{"variant": "C82G A111U A120G A145C C150A U176C", "reverse-splicing fitness": 0.0103}
{"variant": "C82G A111U A120C C150A C169G U176G", "reverse-splicing fitness": 0.00701}
{"variant": "C82G A111U A120C C150A C169G U176A", "reverse-splicing fitness": 0.0181}
{"variant": "C82G A111U A120C C150A C169G U176C", "reverse-splicing fitness": 0.0267}
{"variant": "C82G A111U A120C C169G", "reverse-splicing fitness": 0.00915}
{"variant": "C82G A111U A120C C169A", "reverse-splicing fitness": 0.00833}
{"variant": "C82G A111U A120C C169U", "reverse-splicing fitness": 0.0134}
